No end group written: not given here.
Biological target: membrane-bound Torpedo californica nicotinic acetylcholine receptor (Torpedo californica)
Experiment: radioligand binding

membrane-bound Torpedo californica nicotinic acetylcholine receptor (Torpedo californica), sequence (P02710 25-461 limits assumed, chain 1 of 4): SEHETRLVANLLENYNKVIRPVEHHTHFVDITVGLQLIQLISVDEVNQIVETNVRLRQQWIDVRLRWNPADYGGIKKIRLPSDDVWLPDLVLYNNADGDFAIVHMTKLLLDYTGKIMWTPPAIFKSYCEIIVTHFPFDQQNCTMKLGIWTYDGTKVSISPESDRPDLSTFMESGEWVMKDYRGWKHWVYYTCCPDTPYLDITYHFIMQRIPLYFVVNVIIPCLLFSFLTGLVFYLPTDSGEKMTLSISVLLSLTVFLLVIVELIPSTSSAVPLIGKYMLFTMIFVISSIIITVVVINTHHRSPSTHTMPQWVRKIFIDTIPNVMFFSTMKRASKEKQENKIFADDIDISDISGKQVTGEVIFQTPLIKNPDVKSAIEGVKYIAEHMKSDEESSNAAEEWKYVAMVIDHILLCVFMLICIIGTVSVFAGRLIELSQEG
membrane-bound Torpedo californica nicotinic acetylcholine receptor (Torpedo californica), sequence (P02712 25-493 limits assumed, chain 2 of 4, further chain): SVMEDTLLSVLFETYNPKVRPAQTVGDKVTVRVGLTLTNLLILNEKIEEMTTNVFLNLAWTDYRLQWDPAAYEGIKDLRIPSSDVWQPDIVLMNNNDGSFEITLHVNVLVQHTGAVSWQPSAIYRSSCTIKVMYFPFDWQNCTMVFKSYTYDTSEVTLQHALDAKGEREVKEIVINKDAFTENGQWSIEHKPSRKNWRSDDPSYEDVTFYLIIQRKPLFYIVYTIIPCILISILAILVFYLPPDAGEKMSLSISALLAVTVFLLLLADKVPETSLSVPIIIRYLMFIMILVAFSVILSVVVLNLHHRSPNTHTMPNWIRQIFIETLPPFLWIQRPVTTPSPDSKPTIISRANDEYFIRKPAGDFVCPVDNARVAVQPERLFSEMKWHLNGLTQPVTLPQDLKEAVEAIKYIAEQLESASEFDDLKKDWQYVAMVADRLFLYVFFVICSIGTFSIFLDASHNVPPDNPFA
membrane-bound Torpedo californica nicotinic acetylcholine receptor (Torpedo californica), sequence (P02714 18-506 limits assumed, chain 3 of 4, further chain): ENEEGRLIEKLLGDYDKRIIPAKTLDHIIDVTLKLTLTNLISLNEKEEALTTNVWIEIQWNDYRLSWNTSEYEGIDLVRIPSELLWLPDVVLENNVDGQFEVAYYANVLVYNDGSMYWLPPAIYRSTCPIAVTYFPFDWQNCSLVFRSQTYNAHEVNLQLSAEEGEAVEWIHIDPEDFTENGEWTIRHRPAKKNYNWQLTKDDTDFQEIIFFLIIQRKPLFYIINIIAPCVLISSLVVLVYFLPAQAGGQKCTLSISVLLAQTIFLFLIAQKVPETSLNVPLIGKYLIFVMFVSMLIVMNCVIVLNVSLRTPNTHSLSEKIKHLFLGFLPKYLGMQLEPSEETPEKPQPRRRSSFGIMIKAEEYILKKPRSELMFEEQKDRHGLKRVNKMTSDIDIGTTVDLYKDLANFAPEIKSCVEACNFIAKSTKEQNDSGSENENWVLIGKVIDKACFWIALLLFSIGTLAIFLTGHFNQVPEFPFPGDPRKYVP
membrane-bound Torpedo californica nicotinic acetylcholine receptor (Torpedo californica), sequence (P02718 22-522 limits assumed, chain 4 of 4, further chain): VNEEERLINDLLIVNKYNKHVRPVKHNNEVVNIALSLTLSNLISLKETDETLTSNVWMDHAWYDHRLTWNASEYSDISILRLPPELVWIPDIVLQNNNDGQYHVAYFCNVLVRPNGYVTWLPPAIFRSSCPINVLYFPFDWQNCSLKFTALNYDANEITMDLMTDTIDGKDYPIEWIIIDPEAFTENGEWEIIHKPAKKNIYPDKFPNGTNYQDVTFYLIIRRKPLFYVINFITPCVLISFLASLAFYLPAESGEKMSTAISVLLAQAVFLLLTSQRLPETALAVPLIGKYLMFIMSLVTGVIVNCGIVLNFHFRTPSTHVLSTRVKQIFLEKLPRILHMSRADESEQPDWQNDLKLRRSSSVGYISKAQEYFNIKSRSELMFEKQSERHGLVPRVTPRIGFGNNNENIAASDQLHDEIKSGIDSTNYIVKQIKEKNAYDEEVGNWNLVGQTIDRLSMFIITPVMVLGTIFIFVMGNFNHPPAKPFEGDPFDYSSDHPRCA

IC50 | Binder
74.1 µM | CTRTYYTPTRMC (not fully specified (bridges); cysteine pairing not given here) [Lynx1 short (3), shorter loop II fragment of human Lynx1 with terminal Cys, disulfide-cyclised]
15.6 µM | CTRTYYTPTRMC [Lynx1 short linear (4), shorter loop II fragment of human Lynx1 with free terminal Cys]
4.9 µM | CTTRTYYTPTRMKVSKC (not fully specified (bridges); cysteine pairing not given here)
13.2 µM | TTRTYYTPTRMKVSK [Lynx1 linear (2), synthetic 15-membered loop II fragment of human Lynx1]

From paper PMC6616073
